We go through two molecules from patent US20090031441A1 (NATIONAL UNIVERSITY CORPORATION NAGOYA UNIVERSITY, published 2009).

The target in assay [1] is T1, RGL1 (Arabidopsis DELLA protein), yeast two-hybrid prey in pGADT7 AD vector (Arabidopsis, UniProt Q9C8Y3 1-511).
T1 construct: also called AtDELLA
T1 sequence (looked up): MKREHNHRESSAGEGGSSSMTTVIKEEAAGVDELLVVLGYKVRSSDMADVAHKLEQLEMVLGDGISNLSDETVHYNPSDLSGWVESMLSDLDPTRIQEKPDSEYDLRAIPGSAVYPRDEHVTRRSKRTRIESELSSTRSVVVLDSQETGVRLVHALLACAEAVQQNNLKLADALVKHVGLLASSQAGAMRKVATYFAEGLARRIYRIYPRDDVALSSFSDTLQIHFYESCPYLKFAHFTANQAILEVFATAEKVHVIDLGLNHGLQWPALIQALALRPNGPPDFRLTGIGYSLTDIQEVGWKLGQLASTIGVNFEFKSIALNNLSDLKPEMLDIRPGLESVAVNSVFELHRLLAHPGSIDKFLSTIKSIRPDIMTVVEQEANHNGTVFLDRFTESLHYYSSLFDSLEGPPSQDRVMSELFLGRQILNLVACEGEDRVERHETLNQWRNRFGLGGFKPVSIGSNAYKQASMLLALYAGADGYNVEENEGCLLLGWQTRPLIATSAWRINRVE
The assay can be described thus: yeast two-hybrid system. As for the experimental part: (§1) Arabidopsis has five DELLA proteins (RGA, GAI, RGL1, RGL2, and RGL3; collectively designated AtDELLA; Fleet, C. M., and Sun, T.-P. (2005) Curr. Opin. Plant Biol., 8, 77-85; Dill, A., and Sun, T. (2001) Genetics, 159, 777-785); therefore, there are 15 possible combinations of GID1/DELLA proteins. To verify the positive interactions between AtGID1-AtDELLA, two experiments were conducted using the yeast two hybrid (Y2H) system. In the first experiment (Assay A), a viable colony assay using a defined medium in which only positive clones would survive was carried out. In the second experiment (Assay B), β-galactosidase activity was measured, as reporter gene product of AtGID1-AtDELLA interactions.
BD Matchmaker Two-hybrid System 3 (Clontech, Palo Alto, Calif., USA; now part of Takara Bio) was used in the Y2H experiments. After confirming the PCR products of the AtGID1 genes by sequencing, PCR products were cloned into pGBKT7 DNA-BD shuttle vector to construct bait plasmids. Likewise, the entire coding region of each AtDELLA gene (GAI including EcoRI and XhoI sites; RGA including BamHI and XhoI sites; RGL1 including SmaI and SacI sites; RGL2 including SmaI and ClaI sites; RGL3 including SmaI and XhoI sites on the ends) was cloned into pGADT7 AD vector. The S. cerevisiae AH109 (MATa) strain or Y187 (MATα) strain was used, and DNA-BD and AD vector cassettes were used as negative controls. The details of the method used for the yeast assay are as described in the manufacturer's instructions (Yeast Protocols Handbook #PT3024-1; http://www.clontech.com/). Experiments were carried out four times independently. Similar results were obtained each time.

For assay [2], the target named is T1, RGL1 (Arabidopsis DELLA protein), yeast …. The assay can be described thus: yeast two-hybrid without GA (FIG. 11); member RGL1 named in the legend of FIG. 11. As for the experimental part: as §1
BD Matchmaker Two-hybrid System 3 (Clontech, Palo Alto, Calif., USA; now part of Takara Bio) was used in the Y2H experiments. After confirming the PCR products of the AtGID1 genes by sequencing, PCR products were cloned into pGBKT7 DNA-BD shuttle vector to construct bait plasmids. […]
Thus, GA₄ (10⁻⁵ M) was used and added to the medium. […] As described above, all AtGID1-AtDELLA interactions were detected in a GA-dependent manner; however, interactions between AtGID1b and some AtDELLAs were detected, albeit weakly, in the absence of GA (FIG. 11).

The target in assay [3] is T2, RGA (Arabidopsis DELLA protein), yeast two-hybrid prey in pGADT7 AD vector (Arabidopsis, UniProt Q9SLH3 1-587).
T2 construct: also called AtDELLA
T2 sequence (looked up): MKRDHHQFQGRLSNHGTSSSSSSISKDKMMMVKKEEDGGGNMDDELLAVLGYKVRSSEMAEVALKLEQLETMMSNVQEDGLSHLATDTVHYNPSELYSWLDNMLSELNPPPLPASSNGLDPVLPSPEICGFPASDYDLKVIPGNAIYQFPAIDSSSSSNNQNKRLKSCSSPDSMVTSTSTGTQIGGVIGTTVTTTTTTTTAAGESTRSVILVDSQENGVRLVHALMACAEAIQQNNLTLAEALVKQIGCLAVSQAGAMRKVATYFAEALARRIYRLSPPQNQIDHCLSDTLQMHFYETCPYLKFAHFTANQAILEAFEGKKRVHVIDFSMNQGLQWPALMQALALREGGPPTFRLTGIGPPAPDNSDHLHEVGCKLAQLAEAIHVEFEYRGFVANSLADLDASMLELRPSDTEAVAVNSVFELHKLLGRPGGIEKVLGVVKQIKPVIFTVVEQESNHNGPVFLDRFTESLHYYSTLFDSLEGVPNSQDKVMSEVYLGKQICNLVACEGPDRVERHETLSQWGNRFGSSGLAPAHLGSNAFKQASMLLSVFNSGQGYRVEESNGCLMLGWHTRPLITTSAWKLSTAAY
The assay can be described thus: yeast two-hybrid Assay B (beta-galactosidase), GA4 dose response 10^-5 to 10^-9 M. The protocol: Each AtGID1 was used as a bait while AtDELLA was a prey. GA₄ (10⁻⁵ M) was added to the medium. The bars indicates β-galactosidase activity when o-nitrophenol-β-D-galactopyranoside was used as a substrate (Assay B). The growth of each transformant in the defined medium for 2 days (Assay A) is shown beneath of each bar graph. The experiment was carried out in quadruplicate. The SD value shown in the figure was determined from three measurements. Panel B) depicts the dose response in AtGID1-RGA interaction in Assay B of Y2H. GA₄ (10⁻⁵ to 10⁻⁹ M) was added to the medium. The experiment was conducted in duplicates. The SD value shown in the figure was determined from three measurements. Panel C) depicts the results of an evaluation of the in vitro GA-binding potency of AtGID1 using AtDELLA. Left panel, 15 minutes after mixing AtGID1c (C), tritiated GA, with an excess amount of non-labeled GA (+) or without non-labeled GA (−). GAI (G) or RGA (R) was added, and then the GA-binding activity in each reaction mixture was measured according to the standard method. Recombinant protein originating from the vector (v) was used as a negative control. The experiment was carried out in duplicates. The SD value was determined from three measurements. Right panel, a profile of Western blotting for recombinant AtDELLA using an antibody to His tag. G, GAI; R, RGA; v, vector; M, molecular weight marker. […]

B1: AtGID1a (At3g05120), yeast two-hybrid bait in pGBKT7 DNA-BD vector (receptor, not shown: small tags and cut ends)
chain: MAASDEVNLIESRTVVPLNTWVLISNFKVAYNILRRPDGTFNRHLAEYLDRKVTANANPVDGVFSFDVLIDRRINLLSRVYRPAYADQEQPPSILDLEKPVDGDIVPVILFFHGGSFAHSSANSAIYDTLCRRLVGLCKCVVVSVNYRRAPENPYPCAYDDGWIALNWVNSRSWLKSKKDSKVHIFLAGDSSGGNIAHNVALRAGESGIDVLGNILLNPMFGGNERTESEKSLDGKYFVTVRDRDWYWKAFLPEGEDREHPACNPFSPRGKSLEGVSFPKSLVVVAGLDLIRDWQLAYAEGLKKAGQEVKLMHLEKATVGFYLLPNNNHFHNVMDEISAFVNAEC
notes: Bait fusion for the Y2H assays (BD Matchmaker Two-hybrid System 3); also called Arabidopsis GID1
B1: in assay [1], the binding result is recorded as “binds”.

B2: AtGID1b (At3g63010), yeast two-hybrid bait in pGBKT7 DNA-BD vector (receptor, not shown: small tags and cut ends)
chain: MAGGNEVNLNECKRIVPLNTWVLISNFKLAYKVLRRPDGSFNRDLAEFLDRKVPANSFPLDGVFSFDHVDSTTNLLTRIYQPASLLHQTRHGTLELTKPLSTTEIVPVLIFFHGGSFTHSSANSAIYDTFCRRLVTICGVVVVSVDYRRSPEHRYPCAYDDGWNALNWVKSRVWLQSGKDSNVYVYLAGDSSGGNIAHNVAVRATNEGVKVLGNILLHPMFGGQERTQSEKTLDGKYFVTIQDRDWYWRAYLPEGEDRDHPACNPFGPRGQSLKGVNFPKSLVVVAGLDLVQDWQLAYVDGLKKTGLEVNLLYLKQATIGFYFLPNNDHFHCLMEELNKFVHSIEDSQSKSSPVLLTP
notes: Bait fusion for the Y2H assays; also called Arabidopsis GID1
With B2, the binding result in assay [2] and in assay [3] was “binds” throughout.
